This assay addresses T1, human programmed death ligand 1 (PD-L1) (human, UniProt Q9NZQ7 19-290).
T1 construct: Endogenous PD-L1 on tumor, stromal and inflammatory cells in formalin-fixed, paraffin-embedded tumor tissue sections; 22C3 is described as an anti-human PD-L1 antibody; also called mature PD-L1; hPD-L1
Kind of assay: IHC on FFPE NSCLC tissue section.

T1 sequence (Q9NZQ7 19-290): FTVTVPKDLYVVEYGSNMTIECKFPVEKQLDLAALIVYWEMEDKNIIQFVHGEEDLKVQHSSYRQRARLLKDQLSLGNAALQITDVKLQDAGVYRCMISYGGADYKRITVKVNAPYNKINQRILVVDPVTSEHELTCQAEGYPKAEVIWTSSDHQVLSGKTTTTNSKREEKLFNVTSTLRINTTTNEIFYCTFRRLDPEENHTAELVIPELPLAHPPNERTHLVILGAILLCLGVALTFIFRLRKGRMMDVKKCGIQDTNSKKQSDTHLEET

B1: monoclonal antibody 22C3 (antibody, V domains shown)
VH: QVHLQQSGAELAKPGASVKMSCKASGYTFTSYWIHWIKQRPGQGLEWIGYINPSSGYHEYNQKFIDKATLTADRSSSTAYMHLTSLTSEDSAVYYCARSGWLIHGDYYFDFWGQGTTLTVSS
VL: DIVMSQSPSSLAVSAGEKVTMTCKSSQSLLHTSTRKNYLAWYQQKPGQSPKLLIYWASTRESGVPDRFTGSGSGTDFTLTISSVQAEDLAVYYCKQSYDVVTFGAGTKLELK
notes: Whole hybridoma antibody used as primary antibody in IHC; also called MEB037.22C3; PD-L1 22C3 antibody
In the case of B1, the binding result is “binds”.

(Values after patent US20160084839A1 (Merck Sharp & Dohme, published 2016).)
